Experimental findings from patent US20250295801A1, “CD25 ANTIBODIES, ANTIBODY DRUG CONJUGATES, AND USES THEREOF” (Seagen Inc., priority 2024, published 2025) are described below.

T1: mouse CD25 on Yac-1 mouse lymphoma cells (mouse) (UniProt P01590)
T1 sequence (looked up): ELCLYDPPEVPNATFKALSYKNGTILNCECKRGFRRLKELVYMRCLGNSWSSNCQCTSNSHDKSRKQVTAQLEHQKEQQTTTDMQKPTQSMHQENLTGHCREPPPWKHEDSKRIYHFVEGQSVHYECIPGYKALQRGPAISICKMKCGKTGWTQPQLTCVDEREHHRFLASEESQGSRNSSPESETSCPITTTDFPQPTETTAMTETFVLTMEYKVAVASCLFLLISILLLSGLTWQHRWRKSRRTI

T2: recombinant cynomolgus CD25 (cynomolgus, UniProt H6WS54 22-213)
T2 construct: also called cyno CD25; cynomolgus CD25/IL2RA
T2 sequence: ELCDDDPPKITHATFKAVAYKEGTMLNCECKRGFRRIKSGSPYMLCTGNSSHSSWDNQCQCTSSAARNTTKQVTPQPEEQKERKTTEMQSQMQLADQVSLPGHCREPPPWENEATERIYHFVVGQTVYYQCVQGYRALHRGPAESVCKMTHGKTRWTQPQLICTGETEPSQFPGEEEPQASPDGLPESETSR

T3: recombinant human CD25 (human, UniProt P01589 22-213, limits assumed, biotinylated in the Octet kinetic assay (site not stated))
T3 construct: Soluble recombinant antigen; It was coated on plates for ELISA and used as bought biotinylated protein for BLI; The ELISA and BLI reagents may be different constructs; also called hCD25; CD25/IL2RA
T3 sequence: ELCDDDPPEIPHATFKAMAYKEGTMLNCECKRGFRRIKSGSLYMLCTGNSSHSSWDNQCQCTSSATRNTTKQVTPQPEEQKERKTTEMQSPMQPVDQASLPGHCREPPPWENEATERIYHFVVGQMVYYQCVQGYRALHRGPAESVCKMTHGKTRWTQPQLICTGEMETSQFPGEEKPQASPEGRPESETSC

T4: human CD25 on CD25 expressing cells (human, UniProt P01589 22-272)
T4 construct: Endogenous CD25 on human lymphoma lines (L540cy, Karpas-299) and on human Treg cells; also called CD25 on L540cy cells; CD25 on Karpas-299 cells
T4 sequence: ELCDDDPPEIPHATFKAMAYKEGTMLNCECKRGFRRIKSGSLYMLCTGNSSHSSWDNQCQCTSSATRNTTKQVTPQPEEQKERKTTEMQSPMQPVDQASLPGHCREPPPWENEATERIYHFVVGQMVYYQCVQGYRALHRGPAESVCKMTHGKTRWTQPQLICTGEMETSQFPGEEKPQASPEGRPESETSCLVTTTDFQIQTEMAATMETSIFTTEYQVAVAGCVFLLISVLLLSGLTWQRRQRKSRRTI

B1: PC61 mIgG2a (antibody, from another filing, V domains shown)
VH: EVQLQQSGAELVRPGTSVKLSCKVSGDTITAYYIHFVKQRPGQGLEWIGRIDPEDDSTEYAEKFKNKATITANTSSNTAHLKYSRLTSEDTATYFCTTDNMGATEFVYWGQGTLVTVSS
VL: QVVLTQPKSVSASLESTVKLSCKLNSGNIGSYYMHWYQQREGRSPTNLIYRDDKRPDGAPDRFSGSIDISSNSAFLTINNVQTEDEAMYFCHSYDGRMYIFGGGTKLTV
B2: CD25 antibody SG25Ab-4 (antibody, human IgG1, lambda, V domains shown)
VH: EVQLVQSGAEVKKPGESLKISCKGPEYSFNRYWIAWVRQRPGKGLEWMGIIYPGDSDARYSPTFEGHVTLSADMSLTTAYLQWSSLRASDTAMYYCARLGSYYAFDIWGKGTMVTVSS
VL: QSALTQPASVSGSPGQSITIFCTGTSSDVGGYNYVSWYQQHPGKAPKLMIYDVSKRPSGVSNRFSGSKSGNTASLTISGLQAEDEADYYCSSYTSSSTWVFGGGTQLTVLS
notes: IgG1 format; also called SGAb25-4
B3: SG25Ab-9 variant GH53Y (antibody, V domains shown)
VH: QVQLVQSGAEVKKPGESLKISCKGSGYSSTSYWIGWVRQMPGKGLEWMGIIYPYDSDTRYSPSFQGQVTISADKSISTAYLQWSSLKASDTAMYYCARLGSYYAFDIWGRGTMVTVSS
VL: QSALTQPASVSASPGQSITISCTGTSSDVGAYIYVSWYQQLSGKPPKLILYDVSKRPSGISDRFSGSKSGNTASLTISGLQADDEADYYCSSYTRSSTWVFGGGTQLTVLG
B4: SG25Ab-9 variant YH27A (antibody, V domains shown)
VH: B3 VH with Y27A, Y54G
VL: B3 VL
B5: SG25Ab-9 variant SH28W (antibody, V domains shown)
VH: B3 VH with S28W, Y54G
VL: B3 VL
B6: SG25Ab-9 variant SH55N (antibody, V domains shown)
VH: B3 VH with Y54G, S56N
VL: B3 VL
B7: SG25Ab-9 variant DH101K (antibody, V domains shown)
VH: B3 VH with Y54G, D106K
VL: B3 VL
B8: SG25Ab-9 variant FH100AA (antibody, V domains shown)
VH: B3 VH with Y54G, F105A
VL: B3 VL
B9: SG25Ab-9 variant FH100AN (antibody, V domains shown)
VH: B3 VH with Y54G, F105N
VL: B3 VL
B10: SG25Ab-9 variant YH99A (antibody, V domains shown)
VH: B3 VH with Y54G, Y103A
VL: B3 VL
notes: Kabat-type numbering, not linear
B11: SG25Ab-9 variant DH56K (antibody, V domains shown)
VH: B3 VH with Y54G, D57K
VL: B3 VL
B12: SG25Ab-9 variant YH32A (antibody, V domains shown)
VH: B3 VH with Y32A, Y54G
VL: B3 VL
B13: SG25Ab-9 variant DH54K (antibody, V domains shown)
VH: B3 VH with Y54G, D55K
VL: B3 VL
B14: SG25Ab-9 variant YH52A (antibody, V domains shown)
VH: B3 VH with Y52A, Y54G
VL: B3 VL
B15: SG25Ab-9 variant AH100F (antibody, V domains shown)
VH: B3 VH with Y54G, A104F
VL: B3 VL
B16: SG25Ab-9 variant GH96W (antibody, V domains shown)
VH: B3 VH with Y54G, G100W
VL: B3 VL

Numbering of substitutions follows the chain as printed.

The first experiment deals with T1, mouse CD25 on Yac-1 mouse lymphoma cells (mouse). Kind of experiment: saturation binding by flow cytometry on Yac-1 cells.
Molecule B1 yielded a Kd of 0.7 nM.

For a further experiment, the target named is T2, recombinant cynomolgus CD25. The experiment can be described thus: ELISA on plate-coated cynomolgus CD25.
Method: (§1) Saturation binding ELISA experiments were performed using soluble recombinant antigens, which were diluted to an appropriate concentration in 50 mM carbonate buffer, pH 9.6. To each well of a 96- or 384-well Maxisorb ELISA plate was added 100 μL of soluble antigen. The plate was sealed and stored at 4° C. overnight. The plate was then washed 3-5 times with PBS-T was buffer (PBS, pH 7.4+0.05% Tween-20). The wells were blocked using 300 μL/well of PBS-T buffer containing BSA for 1 hour at room temperature, then washed 3-5 times with PBS-T. Dilutions of antibodies were prepared in blocking buffer and added to each well in a volume of 100 μL. The antibodies were incubated for 1 hour at room temperature, and then washed 3-5 times with PBS-T. HRP-conjugated secondary antibodies (anti-human Fc) were then added and incubated for 1 hour at room temperature. The plate was washed 3-5 times with PBS-T. The ELISA was developed by adding 100 μL of TMB solution and incubating for 3-15 min at room temperature. To stop the reaction, 100 μL of 1 N sulfuric acid was added to each well. The absorbance at 450 nm was determined using a Spectramax 190 plate reader (Molecular Biosciences) and the data plotted using GraphPad Prism 6.
For B2, the “EC50 (read off the curve)” value is roughly 0.1 nM.

For the next experiment, the target named is T3, recombinant human CD25. The experiment can be described thus: saturation binding ELISA on recombinant human CD25.
Method: as §1
On to B3, for which the “EC50 (read off the curve)” value is roughly 0.2 nM.
Take B4: the “EC50 (read off the curve)” value is roughly 0.2 nM.
On the same count and under the same terms, the figure for B5 is roughly 0.2 nM.
In the case of B6, the “EC50 (read off the curve)” value is roughly 0.2 nM.

The next experiment addresses T3, recombinant human CD25. The experiment can be described thus: saturation binding ELISA on recombinant human CD25. This is another data set of the same source.
Method: as §1
Regarding B7, the concentration for a half-maximal effect (EC50 (read off the curve)) is roughly 0.2 nM.
Still for that read-out and setting: to B8 belongs roughly 0.8 nM.
With B9, the “EC50 (read off the curve)” value is roughly 0.3 nM.

The target in a further experiment is T3, recombinant human CD25. The experiment can be described thus: BLI kinetics (Octet RED384), biotinylated hCD25 on SAX tips, 1:1 global fit.
Method: Biotinylated recombinant human CD25 was obtained from Acro Biosystems. Biotinylated hCD25 protein was loaded on SAX (High sensitivity streptavidin) tips at 0.8 nM loading density. Affinity measurements were run using a ForteBio Octet RED384 instrument in the kinetic buffer comprising 1×PBS, 0.1% BSA, 0.02% Tween20, pH 7.4. Association measurements were performed for 300 seconds and disassociation measurements were performed for 900 seconds. Each curve was reference subtracted and modeled using a 1:1 global fit. KD results are reported as kₐ divided by kd.
As for B10, the Kd was 21.5 nM, the koff was 0.0085 s⁻¹ and the on-rate constant (kon) came out at 390000 M⁻¹ s⁻¹.
The like results for B3 were, in that order, 0.1 nM, 8.1e-05 s⁻¹ and 1.6e+06 M⁻¹ s⁻¹.
For B4, in that order: 0.1 nM, 2.6e-05 s⁻¹ and 240000 M⁻¹ s⁻¹.
For B11, in that order: 151 nM, 0.004 s⁻¹ and 26000 M⁻¹ s⁻¹.
As for B12, the Kd turned out to be 0.8 nM, the koff was 0.00023 s⁻¹ and the kon was 300000 M⁻¹ s⁻¹.
For B13, in that order: 24.2 nM, 0.0079 s⁻¹ and 330000 M⁻¹ s⁻¹.
For the molecule B14, the Kd came out at 1.3 nM, the dissociation rate constant (koff) was 0.001 s⁻¹ and the kon was determined as 780000 M⁻¹ s⁻¹.
The like results for B15 were, in that order, 3.9 nM, 0.0012 s⁻¹ and 310000 M⁻¹ s⁻¹.
Turning to B7, the dissociation constant Kd was determined as 0.2 nM, the koff was 0.0001 s⁻¹ and the association rate constant (kon) came to 420000 M⁻¹ s⁻¹.
The like results for B8 were, in that order, 0.6 nM, 0.00017 s⁻¹ and 290000 M⁻¹ s⁻¹.
For B9, in that order: 0.3 nM, 5.7e-05 s⁻¹ and 200000 M⁻¹ s⁻¹.
For the molecule B5, the Kd came out at 0.1 nM, the koff was found to be 3.8e-05 s⁻¹ and the on-rate (kon) was determined as 300000 M⁻¹ s⁻¹.
For B16, in that order: 0.5 nM, 0.001 s⁻¹ and 1.9e+06 M⁻¹ s⁻¹.
For B6, in that order: 0.1 nM, 2.8e-05 s⁻¹ and 220000 M⁻¹ s⁻¹.

The next experiment deals with T4, human CD25 on CD25 expressing cells. The experiment can be described thus: saturation binding by flow cytometry on L540cy cells (CD25: 55,000 per cell), MFI (Gmean).
Method: (§2) For cellular binding analysis by FACS, cells expressing the target protein of interest (2×10⁵) were treated with a serial dilution of indicated antibody in staining buffer (PBS, 5% FBS, 0.2% NaN₃). Samples were incubated for 1 hour on ice and washed twice with ice-cold staining buffer. Cells were resuspended with anti-human IgG-AF488 or IgG-AF647 (JacksonImmunoResearch), 1:200 dilution in staining buffer) for 1 hour on ice. Cells were washed twice with ice cold staining buffer and resuspended in staining buffer. Labeled cells were examined by flow cytometry on an Invitrogen Attune NxT flow cytometer gated to exclude nonviable cells, and the data analyzed using FlowJo10 software. When determined, the KD was calculated using GraphPad Prism 6 using non-linear regression.
(§3) Saturation binding analysis was also performed using high CD25 expressing L540cy cells.
For B3, the half-maximal effective concentration (EC50 (read off the curve)) fell in the range of 1 to 2 nM.
Same read-out and setting: to B4 belongs roughly 0.9 nM.
Still for that read-out and setting: to B12 belongs roughly 5 nM; to B14, roughly 4 nM.
On to B5, for which the concentration giving a half-maximal response (EC50 (read off the curve)) was roughly 0.9 nM.
B6: the “EC50 (read off the curve)” value is roughly 0.9 nM.

For another experiment the target is unchanged. Described as above. This is another data set of the same source.
Method: as §2, §3
On to B7, for which the 50% effective concentration (EC50 (read off the curve)) is roughly 1 nM.
Same read-out and setting: the figure for B8 is 1 to 2 nM; for B9 it is 1 to 2 nM.

The target is the same in the next experiment. The experiment can be described thus: saturation binding by flow cytometry on Karpas 299 cells (CD25: 123,000 per cell), GeoMean MFI.
Method: as §2
As for B2, the binding result was “binds”.
